Data on two substances can be found in article PMC3428924.

Experiment [1] deals with elongation factor 1B alpha (eEF1Bα) of C. fasciculata (C. fasciculata (endogenous in choanomastigotes)). The experiment is described as follows: SEC. (In general: SEC sorts molecules by how far they enter the pores of the column.)
Experiment [2] concerns the target elongation factor 1B beta (eEF1Bβ) of C. fasciculata (C. fasciculata (endogenous in choanomastigotes)). The experiment is described as follows: SEC.

For “elongation factor 1B gamma (eEF1Bγ) of C. fasciculata (natural protein)”, the stoichiometry N (in general, the number of molecules, sites or subunits per partner or assembly) in experiment [1] is 2 γ per α; in experiment [2], 2 γ per β.
In the case of “elongation factor 1B alpha (eEF1Bα) of C. fasciculata (natural protein)”, the stoichiometry N in experiment [2] is 1 α per β.
